For one data set, the target named is T1, C9ORF72-SMCR8 complex (human, UniProt Q96LT7;Q8TEV9).
T1 sequence 1: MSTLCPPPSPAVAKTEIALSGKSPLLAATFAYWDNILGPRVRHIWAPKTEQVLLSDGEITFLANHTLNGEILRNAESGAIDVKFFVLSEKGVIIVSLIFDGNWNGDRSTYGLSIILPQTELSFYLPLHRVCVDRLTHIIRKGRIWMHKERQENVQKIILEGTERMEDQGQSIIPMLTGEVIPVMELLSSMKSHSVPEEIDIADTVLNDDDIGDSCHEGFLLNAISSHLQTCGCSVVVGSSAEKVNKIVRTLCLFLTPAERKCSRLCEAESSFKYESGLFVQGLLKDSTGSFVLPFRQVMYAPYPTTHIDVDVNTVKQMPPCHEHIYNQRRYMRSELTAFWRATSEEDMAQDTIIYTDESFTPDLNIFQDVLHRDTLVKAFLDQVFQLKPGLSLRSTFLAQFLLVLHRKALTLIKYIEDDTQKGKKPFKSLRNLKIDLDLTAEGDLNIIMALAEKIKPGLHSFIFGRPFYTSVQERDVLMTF
T1 sequence 2: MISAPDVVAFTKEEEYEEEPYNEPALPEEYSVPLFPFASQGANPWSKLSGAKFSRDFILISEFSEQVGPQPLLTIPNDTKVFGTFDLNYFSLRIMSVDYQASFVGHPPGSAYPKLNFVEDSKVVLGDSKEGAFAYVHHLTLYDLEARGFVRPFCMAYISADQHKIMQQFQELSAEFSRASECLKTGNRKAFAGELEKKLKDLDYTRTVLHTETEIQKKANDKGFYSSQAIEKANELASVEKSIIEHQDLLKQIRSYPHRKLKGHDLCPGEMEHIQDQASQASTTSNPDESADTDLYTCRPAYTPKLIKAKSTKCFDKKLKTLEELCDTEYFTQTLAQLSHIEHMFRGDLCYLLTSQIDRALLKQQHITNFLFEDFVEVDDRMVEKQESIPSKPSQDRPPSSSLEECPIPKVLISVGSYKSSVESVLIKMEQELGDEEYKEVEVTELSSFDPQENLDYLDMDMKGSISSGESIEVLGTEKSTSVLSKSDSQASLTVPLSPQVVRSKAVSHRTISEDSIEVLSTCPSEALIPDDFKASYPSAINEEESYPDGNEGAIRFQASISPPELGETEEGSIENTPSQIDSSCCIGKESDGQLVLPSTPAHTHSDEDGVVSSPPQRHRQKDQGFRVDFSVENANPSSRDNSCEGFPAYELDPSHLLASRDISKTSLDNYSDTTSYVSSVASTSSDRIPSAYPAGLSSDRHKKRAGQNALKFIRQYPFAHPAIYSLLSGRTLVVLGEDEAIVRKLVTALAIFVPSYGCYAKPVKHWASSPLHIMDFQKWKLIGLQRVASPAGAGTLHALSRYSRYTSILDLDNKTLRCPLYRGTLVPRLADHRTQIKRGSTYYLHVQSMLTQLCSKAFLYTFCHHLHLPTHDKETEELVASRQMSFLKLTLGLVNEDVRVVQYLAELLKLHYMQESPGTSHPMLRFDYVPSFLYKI
In words: SEC.

The target in a further data set is T2, C9ORF72-SMCR8^M3 complex (human, UniProt Q96LT7;Q8TEV9, E907A | K910A | Y913A | M914A).
T2 sequence 1: T1 sequence 1
T2 sequence 2: T1 sequence 2 with E907A, K910A, Y913A, M914A
The data set can be described thus: pull-down.

The target in a further data set is T3, C9ORF72-SMCR8^M2 complex (human, UniProt Q96LT7;Q8TEV9, T862A | F863A | H865A | L867A).
T3 sequence 1: T1 sequence 1
T3 sequence 2: T1 sequence 2 with T862A, F863A, H865A, L867A
In words: pull-down.

The data set “AUC” deals with the molecule itself. The data set can be described thus: AUC.
Another data set concerns the target T4, C9ORF72 (human, UniProt Q96LT7 1-481).
T4 sequence: T1 sequence 1
The data set can be described thus: AUC.

Substitutions are numbered along the chain they refer to.

B1: WDR41 (WD40 repeat-containing protein 41) (natural protein)
chain: MLRWLIGGGREPQGLAEKSPLQTIGEEQTQNPYTELLVLKAHHDIVRFLVQLDDYRFASAGDDGIVVVWNAQTGEKLLELNGHTQKITAIITFPSLESCEEKNQLILTASADRTVIVWDGDTTRQVQRISCFQSTVKCLTVLQRLDVWLSGGNDLCVWNRKLDLLCKTSHLSDTGISALVEIPKNCVVAAVGKELIIFRLVAPTEGSLEWDILEVKRLLDHQDNILSLINVNDLSFVTGSHVGELIIWDALDWTMQAYERNFWDPSPQLDTQQEIKLCQKSNDISIHHFTCDEENVFAAVGRGLYVYSLQMKRVIACQKTAHDSNVLHVARLPNRQLISCSEDGSVRIWELREKQQLAAEPVPTGFFNMWGFGRVSKQASQPVKKQQENATSCSLELIGDLIGHSSSVEMFLYFEDHGLVTCSADHLIILWKNGERESGLRSLRLFQKLEENGDLYLAV
Turning to B1, in the data set with C9ORF72-SMCR8 complex, the “stoichiometry N” value was found to be 1. The binding result in the data set with C9ORF72-SMCR8^M3 complex and in the data set with C9ORF72-SMCR8^M2 complex was “binds” throughout.

B2: C9ORF72-SMCR8-WDR41 complex (complex)
chain 1: T1 sequence 1
chain 2: T1 sequence 2
chain 3: B1 chain
Turning to B2, the “stoichiometry N” value in the data set “AUC” is 2.

B3: SMCR8 Longin domain (SMCR8^Longin), co-expressed with C9ORF72 (domain or fragment)
chain: MISAPDVVAFTKEEEYEEEPYNEPALPEEYSVPLFPFASQGANPWSKLSGAKFSRDFILISEFSEQVGPQPLLTIPNDTKVFGTFDLNYFSLRIMSVDYQASFVGHPPGSAYPKLNFVEDSKVVLGDSKEGAFAYVHHLTLYDLEARGFVRPFCMAYISADQHKIMQQFQELSAEFSRASECLKTGNRKAFAGELEKKLKDLDYTRTVLHTETEIQKKANDKGFYSSQAIEKANELASVEKSIIEHQDLLKQIRSYPHRKLKGHDLCPGEMEHIQDQASQASTTSNPDESADTDLYTCRPAYTPKLIKAKSTKCFDKKLKTLEELCDTEYFTQTLAQLSHIEHMFRGDL
For B3, the binding result in the data set with C9ORF72 is recorded as “binds”.

These data come from paper doi:10.1101/2020.04.16.045708 (bioRxiv, 2020).
